# Source: patent US7976843B2, “Method for screening peptides for use in immunotherapy” (Institut National de la Santa et de la Recherche Medicale …, priority 2000, dated 2011)
# Several values for one entry are separate records, joined by “and”; a condition that tells them apart may be missing. Equal values may be shown once. Read-outs that look alike come from different tables or passages of the source.
# How the values were obtained:
# [1] = target: T1, HLA A2.1 molecule (Homo sapiens, UniProt P04439, D140Y/D185E/D98H/E176V/E277Q/G131W/G231S/I119V/I121R/I166T/I218V/L300P/L318F/N151K/N90K/P208A/P217A/Q86G/Q94H/R138H/R169H/T345S); type: binding; details: for RA, Native peptides: HIV 1 peptides
# [2] = test system: RMAS-HHD targets loaded with peptide; experiment: Immunogenicity: CTL generation in HHD transgenic mice, 51Cr lysis of peptide-loaded targets; type: in vivo; details: for percentage of HHD mice in which a CTL response is induced: mice sensitized with the peptide; for immunogenicity (in words): HHD mice (also humans); for killing of RMAS-HHD cells loaded with natural peptide or its P1Y variant: CTLs induced in HHD mice sensitized with the natural peptide, FIG. 1
# [3] = target: T1, HLA A2.1 molecule; experiment: Stability of the peptide/HLA A2.1 complex (DC50) on T2 cells, flow cytometry; type: binding
# Method: For each incubation time, the cells are then labeled, as indicated above, with the BB7.2 antibody, and analyzed by flow cytometry in order to evaluate the amount of peptide/HLA A2.1 complex present at their surface. […] The DC50 (dissociation complex: DC) is defined as being the time required for the loss of 50% of the HLA A2.1/peptide complexes stabilized at t=0.
# [4] = test system: EL-4/HHD cells; experiment: Antitumor protection after peptide vaccination, EL-4/HHD graft; details: for tumor size at D28: 10 HHD mice, two injections two weeks apart, EL-4/HHD graft; for mice still alive at D80: 4 of 10 mice; for day from which mortality is observed: days after implantation of tumor cells; for number of mice showing no tumors at D28: ten mice per group
# [5] = test system: EL-4/HHD/neu tumor cells; experiment: Antitumor protection after peptide vaccination, EL-4/HHD/neu graft
# [6] = native peptides, relative affinity vs reference peptide HIVpol 589, lower RA = stronger binding
# [7] = HHD mice, 100 μg peptide s.c., responder: specific cytotoxicity >15% above unloaded targets
# [8] = […], arrow in neighbouring cell gives direction
# [9] = native peptides, time for loss of 50% of HLA A2.1/peptide complexes
# [10] = native TERT peptides, reference peptide HIVpol 589
substance,measurement,setting,value
MLGTHTMEV [gp100 178],RA,[1]; [6],0.3
same,Responders/total mice,"[2]; mouse, in vivo, sc",4/6
"MLLAVLYCL [Tyrosinase 1, reference compound]",RA,[1]; [6],>60.0
same,Responders/total mice,[2]; [7],4/23
same,percentage of HHD mice in which a CTL response is induced,[2],17%
NLQSLTNLL [HBV pol 985],Responders/total mice,[2]; [7],0/6
PLEEELPRL [HBV pol 594],RA,[1]; [6],4.2
same,DC50 Y1-DC50 WT,[3]; [8],>6 h
same,DC50,[3]; [9],<2 h
same,Responders/total mice,[2]; [7],0/6
PLQPEQLQV [HER-2/neu 391],RA,[1]; [6],>70.0
same,DC50 Y1-DC50 WT,[3]; [8],>6 h
same,DC50,[3]; [9],2 h
same,immunogenicity (in words),[2],nonimmunogenic
same,Responders/total mice,"[2]; mouse, in vivo, sc",0/6
PLTFGWCFKL [P10L],"RA, P1Y peptides",[1],5
same,"RA, Native peptides",[1],>100
PLTSIISAV [HER-2/neu 650],RA,[1],1.4
same,RA WT/RA Y1,[1],6.0
same,DC50,[3],<2 h
same,DC50 Y1-DC50 WT,[3],>4 h
same,immunogenicity (in words),[2],nonimmunogenic
same,Responders/total mice,"[2]; mouse, in vivo, sc",0/6
PLVKLWYQL [P9L],"RA, P1Y peptides",[1],4.6
same,"RA, Native peptides",[1],>100
same,"DC, P1Y peptides",[3],<2 h
QLLRSFFHFL [mp 545],RA,[1]; [10],1.6
same,DC50,[3]; native TERT peptides,>6 h
same,tumor size at D28,[4],489±209 mm^2
RLRDLLLIV [R9V],"RA, P1Y peptides",[1],5
same,"RA, Native peptides",[1],>100
"SLADTNSLAV [gp100 570, reference compound]",RA,[1]; [6],1.0
same,DC50 Y1-DC50 WT,[3]; [8],>2 h
same,DC50,[3]; [9],4 to 6 h
same,killing of RMAS-HHD cells loaded with natural peptide or its P1Y variant,[2],same efficacy
same,Responders/total mice,"[2]; mouse, in vivo, sc",6/9
SLFDFFHFL [mp 797],RA,[1]; [10],1.5
same,DC50,[3]; native TERT peptides,>6 h
same,tumor size at D28,[4],653±148 mm^2
"TDQVPFSV [gp100 209, reference compound]",DC50 Y1-DC50 WT,[3]; [8],2 h
same,DC50,[3]; [9],4 h
same,Responders/total mice,"[2]; mouse, in vivo, sc",4/6
TLEEITGYL [HER-2/neu 402],RA,[1]; [6],19.0
same,DC50 Y1-DC50 WT,[3]; [8],>2 h
same,DC50,[3]; [9],<2 h
same,immunogenicity (in words),[2],nonimmunogenic
same,Responders/total mice,"[2]; mouse, in vivo, sc",0/6
VIYQYMDDL [V9L],"RA, P1Y peptides",[1],8.6
same,"RA, Native peptides",[1],>100
same,"DC, P1Y peptides",[3],<2 h
VLDVGDAYFSV [V11V],"RA, P1Y peptides",[1],2.5
same,"RA, Native peptides",[1],4.5
same,"DC, P1Y peptides",[3],3.5 h
same,"DC, Native peptides",[3]; HIV 1 peptides,2 h
"VLVKSPNHV [HER-2/neu 851, reference compound]",RA,[1]; [6],24.0
same,DC50 Y1-DC50 WT,[3]; [8],2 h
same,DC50,[3]; [9],4 h
same,Responders/total mice,[2]; [7],1/12
same,percentage of HHD mice in which a CTL response is induced,[2],8%
"VLYRYGSFSV [gp100 476, reference compound]",RA,[1]; [6],10.0
same,DC50 Y1-DC50 WT,[3]; [8],2 h
same,DC50,[3]; [9],6 h
same,killing of RMAS-HHD cells loaded with natural peptide or its P1Y variant,[2],same efficacy
same,Responders/total mice,[2]; [7],8/10
YLFFYRKSV [mhp 572Y1],RA,[1],2.2
same,DC50,[3]; modified (P1Y) TERT peptides,5 h
same,mice still alive at D80,[4],40%
same,tumor size at D28,[4],232±244 mm^2
same,day from which mortality is observed,[4],40 days
same,number of mice showing no tumors at D28,[4],4 mice
YLIHHNTHL [HER-2/neu 466Y1],RA,[1],1.4
same,DC50,[3],6 h
YLQVNSLQTV [mhp 988Y1],RA,[1],2.1
same,DC50,[3]; modified (P1Y) TERT peptides,>6 h
same,mice still alive at D80,[4],40%
same,tumor size at D28,[4],190±207 mm^2 and 213±160 mm^2
same,day from which mortality is observed,[4],40 days
same,number of mice showing no tumors at D28,[4],4 mice
YLTSIISAV [HER-2/neu 650Y1],mice still alive at D70,[5]; 3 of 10 mice,30%
same,tumor size at D28,"[5]; 10 HHD mice, two injections two weeks apart, EL-4/HHD/neu graft",100±99 mm^2
same,number of mice showing no tumors at D28,[5]; ten mice per group,4 mice
same,RA,[1],0.2
same,DC50,[3],6 h
"YLVPQQGFFC [HER-2/neu 1023, reference compound]",RA (bound stated in text),[1],> 5
same,RA,[1]; [6],19.6
same,DC50,[3]; [9],4 h
same,Responders/total mice,"[2]; mouse, in vivo, sc",5/10
gp100 177Y1: P1Y variant of gp100 177 (YMLGTHTMEV),percentage of HHD mice in which a CTL response is induced,[2],75%
gp100 457Y1: P1Y variant of gp100 457 (YLDGTATLRL),percentage of HHD mice in which a CTL response is induced,[2],75%
gp100 476Y1: P1Y variant of gp100 476 (YLYRYGSFSV),percentage of HHD mice in which a CTL response is induced,[2],100%
gp100 570Y1: P1Y variant of gp100 570 (YLADTNSLAV),percentage of HHD mice in which a CTL response is induced,[2],100%
